Among the data in publication PMC12295762, “Role of Individual Amino Acid Residues Directly Involved in Damage Recognition in Active Demethylation by ABH2 Dioxygenase” are Kd values, retold here.

Experiment in all cases: EMSA; 0.5 mM αKG, 10 mM Mg2+, 2 mM ascorbate; 50 mM Tris-HCl pH 8.0, 50 mM KCl, 10 mM MgCl2, 0.5 mM αKG, 2 mM sodium ascorbate; 1.2 µM DNA, 0.4-12.8 µM protein; 10 min 37 °C then 5 min on ice; 10% native PAGE, 0.5x TBE, 4-8 °C; Hill fit
Settings in all cases: protein: recombinant; tags: N-terminal His6; label: 5'-FAM on strand 1; blunt

In one data set the target is T1, ABH2 R110A (human, UniProt Q6NS38 1-261, R110A).
T1 sequence: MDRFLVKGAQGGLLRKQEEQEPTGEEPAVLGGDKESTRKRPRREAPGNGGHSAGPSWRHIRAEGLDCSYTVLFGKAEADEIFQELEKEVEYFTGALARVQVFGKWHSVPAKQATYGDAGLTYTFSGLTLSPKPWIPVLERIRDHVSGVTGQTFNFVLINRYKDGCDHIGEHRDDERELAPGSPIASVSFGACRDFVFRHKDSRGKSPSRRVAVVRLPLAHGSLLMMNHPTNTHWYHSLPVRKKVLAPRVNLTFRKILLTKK

A further data set concerns the target T2, ABH2 F124A (human, UniProt Q6NS38 1-261, F124A).
T2 sequence: T1 sequence with A110R, F124A

The next data set has as its target T3, ABH2 R172A (human, UniProt Q6NS38 1-261, R172A).
T3 sequence: T1 sequence with A110R, R172A

The target in a further data set is T4, ABH2 E175A (human, UniProt Q6NS38 1-261, E175A).
T4 sequence: T1 sequence with A110R, E175A

A further data set concerns the target T5, ABH2 V99A (human, UniProt Q6NS38 1-261, V99A).
T5 sequence: T1 sequence with V99A, A110R

For a further data set, the target named is T6, ABH2 S125A (human, UniProt Q6NS38 1-261, S125A).
T6 sequence: T1 sequence with A110R, S125A

Positions count from the first letter of the chain named.

B1: m1A dsDNA (dsDNA)
DNA 1: AGTTCAATGATCTTCAT
DNA 2: ATGAAGATCATTGAACT
modifications: N1-methyladenine (m1A) at position 10 of strand 1
Take B1: the Kd (commonly the constant that tells how readily two partners part at equilibrium) in the data set with ABH2 R110A turned out to be 3.4 ± 0.2 µM; in the data set with ABH2 F124A it was 3.1 ± 0.3 µM; with ABH2 R172A, 2.1 ± 0.08 µM; with ABH2 E175A, 2.44 ± 0.06 µM; with ABH2 V99A it was 3.2 ± 0.3 µM; with ABH2 S125A, 2.7 ± 0.3 µM.

B2: m3C dsDNA (dsDNA)
DNA 1: AGTTCAATGATCTTCAT
DNA 2: ATGAAGATCATTGAACT
modifications: N3-methylcytosine (m3C) at position 12 of strand 1
Regarding B2, the Kd was 4 ± 0.3 µM in the data set with ABH2 R110A; 4.4 ± 0.7 µM with ABH2 F124A; 2.6 ± 0.4 µM in the data set with ABH2 R172A; 2.96 ± 0.04 µM with ABH2 E175A; 2.5 ± 0.6 µM with ABH2 V99A; 4 ± 0.3 µM with ABH2 S125A.
